This note sets out measurements from paper doi:10.1101/2022.05.06.490860 (bioRxiv, 2022).

In data set [1] the target is YjoB-NTD (residues 1-159), oligomer form NTD-1 (B. subtilis 168) (UniProt O34703). The data set can be described thus: crystal structure.
The target of data set [2] is KatA, dimer form (KatA-2) (B. subtilis) (UniProt P26901). The data set can be described thus: SEC. A general note: Size exclusion chromatography separates by hydrodynamic size, large species first.
The data set “SEC” deals with the molecule itself. The data set can be described thus: SEC.
The data set “crystal structure” concerns the molecule itself. Briefly: crystal structure.
The target of data set [3] is T1, KatA, monomeric form (KatA-1) (B. subtilis, UniProt P26901 1-483).
T1 sequence (looked up): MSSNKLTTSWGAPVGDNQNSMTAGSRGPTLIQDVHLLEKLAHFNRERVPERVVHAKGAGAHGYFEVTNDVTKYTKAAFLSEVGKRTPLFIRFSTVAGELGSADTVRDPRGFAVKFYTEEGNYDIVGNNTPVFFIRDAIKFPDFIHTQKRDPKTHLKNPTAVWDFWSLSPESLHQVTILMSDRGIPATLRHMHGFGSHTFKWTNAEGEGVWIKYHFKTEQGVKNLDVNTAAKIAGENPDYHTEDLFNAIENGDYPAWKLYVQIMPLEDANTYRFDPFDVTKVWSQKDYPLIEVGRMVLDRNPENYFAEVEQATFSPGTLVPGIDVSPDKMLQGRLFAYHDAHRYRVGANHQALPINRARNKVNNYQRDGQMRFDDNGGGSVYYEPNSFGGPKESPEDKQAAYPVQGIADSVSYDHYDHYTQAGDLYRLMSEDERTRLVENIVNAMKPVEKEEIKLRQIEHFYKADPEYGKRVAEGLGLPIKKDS
Briefly: SEC.

“YjoB-NTD (residues 1-159), oligomer form NTD-1 (from UniProt O34703 1-159) (domain or fragment)”: the stoichiometry N in data set [1] was 12.

With “KatA, dimer form (KatA-2) (from UniProt P26901 1-483) (enzyme)”, the stoichiometry N in data set [2] worked out at 2.

B1: YjoB-AAA domain (residues 159-423) (domain or fragment, B. subtilis 168, UniProt O34703 159-423, looked up)
chain: RKVTVFTDGDGGTSREQEAIVREVQRSQVIMNPLLKKEIYRSIDQFFHSDKSFYQTYDIPYKRGILLYGPPGNGKTTLVKSIAGSIDAPVAYWQITEFTSSETIEEVFQAARRLAPAVLVIEDIDSMPEDVRSFFLNTLDGATSKEGLFLIGTTNYPEEIDPGLMNRAGRFDRAYEIGLPDEELRLEYMKMRGFGIFLSEGEIKNAAKLTEGFSFAQLGELYVSSALQWHQEGNHHIETMVKDMTGEQRKSQRGSWMERNKVGFH
Regarding B1, in the data set “SEC”, the “stoichiometry N” value was determined as 6.

B2: Bacillus subtilis YjoB (residues 1-423) (natural protein, B. subtilis 168, UniProt O34703 1-423, looked up)
chain: MTNIPFIYQYEEKENERAAAGYGTFGYLITRIEETLYDQYGVFYELYASDDPNTEYWELLVEDVRSGSLEPEHVAYIFEKLEKKTFAYDEDEKEPDYTVHKSIRNSVYAYPEKGVAFARIPYFQDGSIMSFDCLFAVNDEKMRAFLEGVRPRLWEKSKRKVTVFTDGDGGTSREQEAIVREVQRSQVIMNPLLKKEIYRSIDQFFHSDKSFYQTYDIPYKRGILLYGPPGNGKTTLVKSIAGSIDAPVAYWQITEFTSSETIEEVFQAARRLAPAVLVIEDIDSMPEDVRSFFLNTLDGATSKEGLFLIGTTNYPEEIDPGLMNRAGRFDRAYEIGLPDEELRLEYMKMRGFGIFLSEGEIKNAAKLTEGFSFAQLGELYVSSALQWHQEGNHHIETMVKDMTGEQRKSQRGSWMERNKVGFH
For B2, the “stoichiometry N” value in the data set “crystal structure” was 6. For the same molecule, the binding result in data set [3] is reported as “binds”.

As a reminder, the stoichiometry N is the number of molecules, sites or subunits per partner or assembly.
